One molecule from US20030143210A1 (Biogen, published 2003) can be followed below.

The target of the assay is T1, lymphotoxin-β (human, UniProt Q06643 4-244, N-linked oligosaccharide (about 3 kD lost on N-glycanase treatment)).
T1 construct: Type II membrane protein; In the reimmunoprecipitation tests the protein had been eluted from SDS-PAGE gel slices; also called LT-β; LT-B
T1 sequence: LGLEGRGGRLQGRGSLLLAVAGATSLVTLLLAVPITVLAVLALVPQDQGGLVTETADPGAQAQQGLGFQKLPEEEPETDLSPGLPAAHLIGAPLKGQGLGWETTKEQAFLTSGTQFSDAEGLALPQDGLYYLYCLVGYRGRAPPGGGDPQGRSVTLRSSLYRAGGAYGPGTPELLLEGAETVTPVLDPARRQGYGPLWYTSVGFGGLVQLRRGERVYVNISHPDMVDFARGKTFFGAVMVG
Briefly: co-immunoprecipitation, then reimmunoprecipitation of separated bands from 35S-Met labeled II-23.D7 cells. As for the experimental part: Reimmunoprecipitation of SDS-PAGE-separated antigens was carried out by excising labeled bands from gels, rehydrating them for 10 minutes in TBS, 0.2% SDS, and then dicing the gel slices into small pieces. The proteins were eluted by incubation in 1 ml TBS, 0.2% SDS for 8 hours at room temperature, with rotation. After elution the gel pieces were removed by centrifugation, and NP-40 was added to the supernatant to a final concentration of 2%. The eluted proteins were then immunoprecipitated as above, and reanalyzed by SDS-PAGE.

B1: lymphotoxin-α (ligand, human, UniProt P01374 35-205, looked up)
chain: LPGVGLTPSAAQTARQHPKMHLAHSTLKPAAHLIGDPSKQNSLLWRANTDRAFLQDGFSLSNNSLLVPTSGIYFVYSQVVFSGKAYSPKATSSPLYLAHEVQLFSSQYPFHVPLLSSQKMVYPGLQEPWLHSMYHGAAFQLTQGDQLSTHTDGIPHLVLSPSTVFFGAFAL
modifications: N-linked oligosaccharide
notes: mature; also called LT-α; LT
As to B1, the binding result is reported as “binds”.
